Key:
[1] = biological target: recombinant human TNF (human) (UniProt P01375); experiment: anti-TNF ELISA, protein by BCA; first of two lots
[2] = biological target: recombinant human TNF (human) (UniProt P01375); experiment: table head: EC50 in TNF ELISA; the text that introduces the table speaks of the L929 neutralization assay
[3] = biological target: recombinant human TNF (human) (UniProt P01375); experiment: anti-TNF ELISA, AU/mg of final lot over defatted colostrum
[4] = biological target: recombinant human TNF (human) (UniProt P01375); experiment: anti-TNF ELISA, protein by BCA; second of two lots
[5] = biological target: recombinant human TNF (human) (UniProt P01375); experiment: sandwich ELISA, rhTNF 250 pg/ml captured by plate-bound antibody
[6] = biological target: recombinant human IL-6 (human) (UniProt P05231); experiment: sandwich ELISA, rhIL-6 300 pg/ml captured by plate-bound antibody
Sequence of UniProt P05231 (P05231 30-212 limits assumed): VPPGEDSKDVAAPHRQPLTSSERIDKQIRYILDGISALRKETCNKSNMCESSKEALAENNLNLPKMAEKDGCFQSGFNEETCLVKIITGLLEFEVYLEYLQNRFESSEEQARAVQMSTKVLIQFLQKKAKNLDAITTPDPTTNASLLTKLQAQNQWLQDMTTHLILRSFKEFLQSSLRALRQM

[7] = biological target: recombinant human TNF (human) (UniProt P01375); experiment: cell-based or functional assay
[8] = biological target: recombinant rat TNF (rat) (UniProt P16599); experiment: cell-based or functional assay
Sequence of UniProt P16599 (P16599 whole entry, form in doubt): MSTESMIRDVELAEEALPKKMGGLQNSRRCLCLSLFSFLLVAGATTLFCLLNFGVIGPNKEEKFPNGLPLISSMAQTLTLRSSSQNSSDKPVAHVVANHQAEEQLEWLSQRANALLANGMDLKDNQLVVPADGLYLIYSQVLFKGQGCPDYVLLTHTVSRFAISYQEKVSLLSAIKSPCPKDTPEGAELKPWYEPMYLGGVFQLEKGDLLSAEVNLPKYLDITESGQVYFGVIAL

[9] = biological target: recombinant canine TNF (canine) (UniProt P51742); experiment: cell-based or functional assay
Sequence of UniProt P51742 (P51742 whole entry, form in doubt): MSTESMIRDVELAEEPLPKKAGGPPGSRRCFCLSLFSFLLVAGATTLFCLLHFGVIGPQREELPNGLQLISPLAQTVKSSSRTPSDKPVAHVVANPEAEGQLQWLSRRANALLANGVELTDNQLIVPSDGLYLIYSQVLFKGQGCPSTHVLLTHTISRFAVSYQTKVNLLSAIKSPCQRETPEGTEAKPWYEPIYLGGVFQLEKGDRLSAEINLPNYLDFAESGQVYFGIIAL

[10] = biological target: transmembrane TNF on stimulated human PBMC (human) (UniProt P01375); experiment: cell-based or functional assay
[11] = biological target: recombinant rhesus macaque TNF (rhesus macaque) (UniProt P48094); experiment: cell-based or functional assay
Sequence of UniProt P48094 (P48094 whole entry, form in doubt): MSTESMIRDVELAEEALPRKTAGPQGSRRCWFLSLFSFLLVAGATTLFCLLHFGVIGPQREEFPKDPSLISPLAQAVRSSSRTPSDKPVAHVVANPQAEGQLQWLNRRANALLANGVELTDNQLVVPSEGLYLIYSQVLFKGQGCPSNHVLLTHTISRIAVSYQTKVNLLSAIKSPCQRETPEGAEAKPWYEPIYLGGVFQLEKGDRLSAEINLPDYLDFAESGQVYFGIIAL

[12] = biological target: recombinant murine TNF (murine) (UniProt P06804); experiment: cell-based or functional assay
Sequence of UniProt P06804 (P06804 whole entry, form in doubt): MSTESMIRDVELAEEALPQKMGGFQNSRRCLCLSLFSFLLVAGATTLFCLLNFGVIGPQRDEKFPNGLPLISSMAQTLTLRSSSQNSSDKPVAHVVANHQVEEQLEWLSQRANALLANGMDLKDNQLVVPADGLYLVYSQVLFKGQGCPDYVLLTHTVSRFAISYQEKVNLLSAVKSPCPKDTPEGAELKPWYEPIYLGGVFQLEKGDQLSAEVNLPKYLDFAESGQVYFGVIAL

[13] = biological target: recombinant bovine TNF (bovine) (UniProt Q06599); experiment: cell-based or functional assay
Sequence of UniProt Q06599 (Q06599 whole entry, form in doubt): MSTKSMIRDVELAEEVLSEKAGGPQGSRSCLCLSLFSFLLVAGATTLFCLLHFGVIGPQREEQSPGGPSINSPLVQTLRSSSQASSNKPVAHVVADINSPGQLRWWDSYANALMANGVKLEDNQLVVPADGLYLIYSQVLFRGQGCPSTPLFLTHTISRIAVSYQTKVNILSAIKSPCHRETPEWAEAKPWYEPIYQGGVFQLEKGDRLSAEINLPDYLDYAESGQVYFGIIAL

[14] = biological target: recombinant cynomolgus monkey TNF (cynomolgus monkey) (UniProt P79337); experiment: cell-based or functional assay
Sequence of UniProt P79337 (P79337 whole entry, form in doubt): as the sequence (P48094 whole entry, form in doubt) above, with R8Q, T45A, L113V counted along it

Row | Substance | anti-TNF activity by ELISA per mg protein (AU/mg protein) [1] | EC50 [2] [µg/mL] | fold increase of potency against defatted colostrum [3] [fold] | anti-TNF activity by ELISA per mg protein (AU/mg protein) [4] | Absorbance 450 nm (absorbance at 450 nm) [5] | Absorbance 450 nm (absorbance at 450 nm) [6] | EC50, L929 neutralization assay [7] [µg/mL] | EC50, L929 neutralization assay [8] [µg/mL] | EC50, L929 neutralization assay [9] [µg/mL] | Late apoptotic cells, annexin V / propidium iodide FACS of stimulated human PBMC (untreated 27.16%) [10] [%] | Total apoptotic cells, annexin V / propidium iodide FACS of stimulated human PBMC (untreated 34.65%) [10] [%] | EC50, L929 neutralization assay [11] [µg/mL] | EC50, L929 neutralization assay [12] [µg/mL] | EC50, L929 neutralization assay [13] [µg/mL] | EC50, L929 neutralization assay [14] [µg/mL]
1 | AVX-470, bovine colostrum-derived polyclonal anti-hTNF antibody | 634 | 15.9 | 1.9 | 526 | 0.76 | 0.03 | 28 | > 2000 | 250 | 43.3 | 52.1 | 32 | > 2000 | > 2000 | 48
2 | Control Bovine Ig (antibody) | – | – | – | – | -0.01 | 0.01 | – | – | – | – | – | – | – | – | –
